{"source": "the Immune Epitope Database (IEDB)", "key": {"HLA-A*30:01": {"target": "HLA-A*30:01", "test": "IEDB peptide-MHC binding, purified MHC/competitive/radioactivity; filed as Kd, often an IC50 or EC50 that approximates it; ≥ and ≤ were set here for values at or beyond the usual limits of such assays"}, "HLA-A*01:01 [1]": {"target": "HLA-A*01:01", "test": "IEDB peptide-MHC binding, purified MHC/competitive/radioactivity; filed as Kd, often an IC50 or EC50 that approximates it; ≥ and ≤ were set here for values at or beyond the usual limits of such assays"}, "HLA-B*44:02": {"target": "HLA-B*44:02", "test": "IEDB peptide-MHC binding, purified MHC/competitive/radioactivity; filed as Kd, often an IC50 or EC50 that approximates it; ≥ and ≤ were set here for values at or beyond the usual limits of such assays", "details": "source organism: Dengue virus 4 Philippines/H241/1956"}, "HLA-A*69:01": {"target": "HLA-A*69:01", "test": "IEDB peptide-MHC binding, purified MHC/direct/fluorescence; filed as Kd, often an IC50 or EC50 that approximates it; ≥ and ≤ were set here for values at or beyond the usual limits of such assays", "details": "source organism: Encephalitozoon cuniculi"}, "HLA-A*02:01": {"target": "HLA-A*02:01", "test": "IEDB peptide-MHC binding, purified MHC/direct/fluorescence; filed as Kd, often an IC50 or EC50 that approximates it; ≥ and ≤ were set here for values at or beyond the usual limits of such assays", "details": "source organism: Encephalitozoon cuniculi"}, "HLA-A*01:01 [2]": {"target": "HLA-A*01:01", "test": "IEDB peptide-MHC binding, purified MHC/direct/fluorescence; filed as Kd, often an IC50 or EC50 that approximates it; ≥ and ≤ were set here for values at or beyond the usual limits of such assays", "details": "source organism: Giardia lamblia ATCC 50803"}, "HLA-A*26:01": {"target": "HLA-A*26:01", "test": "IEDB peptide-MHC binding, purified MHC/competitive/radioactivity; filed as Kd, often an IC50 or EC50 that approximates it; ≥ and ≤ were set here for values at or beyond the usual limits of such assays"}, "HLA-A*24:02": {"target": "HLA-A*24:02", "test": "IEDB peptide-MHC binding, purified MHC/competitive/radioactivity; filed as Kd, often an IC50 or EC50 that approximates it; ≥ and ≤ were set here for values at or beyond the usual limits of such assays"}, "HLA-A*29:02": {"target": "HLA-A*29:02", "test": "IEDB peptide-MHC binding, purified MHC/competitive/radioactivity; filed as Kd, often an IC50 or EC50 that approximates it; ≥ and ≤ were set here for values at or beyond the usual limits of such assays"}, "HLA-A*23:01": {"target": "HLA-A*23:01", "test": "IEDB peptide-MHC binding, purified MHC/competitive/radioactivity; filed as Kd, often an IC50 or EC50 that approximates it; ≥ and ≤ were set here for values at or beyond the usual limits of such assays"}, "HLA-A*30:02": {"target": "HLA-A*30:02", "test": "IEDB peptide-MHC binding, purified MHC/competitive/radioactivity; filed as Kd, often an IC50 or EC50 that approximates it; ≥ and ≤ were set here for values at or beyond the usual limits of such assays"}, "HLA-B*15:01": {"target": "HLA-B*15:01", "test": "IEDB peptide-MHC binding, purified MHC/direct/fluorescence; filed as Kd, often an IC50 or EC50 that approximates it; ≥ and ≤ were set here for values at or beyond the usual limits of such assays", "details": "source organism: Mammarenavirus juninense"}, "[3]": {"details": "source organism: Dengue virus 2 Jamaica/1409/1983"}, "[4]": {"details": "source organism: Dengue virus 4 Philippines/H241/1956"}, "[5]": {"details": "source organism: Vaccinia virus WR"}, "[6]": {"details": "source organism: Dengue virus 1 Brazil/97-11/1997"}, "[7]": {"details": "source organism: SARS coronavirus Tor2"}, "[8]": {"details": "source organism: Mammarenavirus guanaritoense"}, "[9]": {"details": "source organism: Mammarenavirus juninense"}}, "data": [{"sequence": "INRFTMKHK", "values": [{"measurement": "Kd", "setting": "HLA-A*30:01; [3]", "value": 7950, "unit": "nM"}]}, {"sequence": "ITDFVGKTV", "values": [{"measurement": "Kd", "setting": "HLA-A*01:01 [1]; source organism: Dengue virus 3 Singapore/8120/1995", "value": "≥ 39700", "unit": "nM"}]}, {"sequence": "ITTATRCPTQ", "values": [{"measurement": "Kd", "setting": "HLA-A*30:01; [4]", "value": 9440, "unit": "nM"}]}, {"sequence": "KARCNHLTK", "values": [{"measurement": "Kd", "setting": "HLA-A*30:01; [5]", "value": 0.214, "unit": "nM"}]}, {"sequence": "KARNTPFNM", "values": [{"measurement": "Kd", "setting": "HLA-A*30:01; source organism: Dengue virus 2 Peru/IQT2913/1996", "value": 169, "unit": "nM"}]}, {"sequence": "KEMAETQHG", "values": [{"measurement": "Kd", "setting": "HLA-B*44:02", "value": 143, "unit": "nM"}]}, {"sequence": "KFKLTLPNK", "values": [{"measurement": "Kd", "setting": "HLA-A*30:01; [5]", "value": 12.1, "unit": "nM"}]}, {"sequence": "KMYEYVFKG", "values": [{"measurement": "Kd", "setting": "HLA-A*69:01", "value": "≥ 20000", "unit": "nM"}, {"measurement": "Kd", "setting": "HLA-A*02:01", "value": 40.4, "unit": "nM"}]}, {"sequence": "KTIWEIPQK", "values": [{"measurement": "Kd", "setting": "HLA-A*30:01; [5]", "value": 11.8, "unit": "nM"}]}, {"sequence": "KVDWNQFTY", "values": [{"measurement": "Kd", "setting": "HLA-A*01:01 [2]", "value": 2, "unit": "nM"}]}, {"sequence": "KVKNHIPNI", "values": [{"measurement": "Kd", "setting": "HLA-A*30:01; [5]", "value": 0.684, "unit": "nM"}]}, {"sequence": "KVRSNAAIG", "values": [{"measurement": "Kd", "setting": "HLA-A*30:01; [6]", "value": 13.6, "unit": "nM"}]}, {"sequence": "KVSCTILAA", "values": [{"measurement": "Kd", "setting": "HLA-A*30:01; [3]", "value": 67.7, "unit": "nM"}]}, {"sequence": "KYKYFSGAL", "values": [{"measurement": "Kd", "setting": "HLA-A*01:01 [1]; [7]", "value": "≥ 78100", "unit": "nM"}, {"measurement": "Kd", "setting": "HLA-A*26:01; [7]", "value": "≥ 75500", "unit": "nM"}, {"measurement": "Kd", "setting": "HLA-A*24:02; [7]", "value": "≥ 25700", "unit": "nM"}, {"measurement": "Kd", "setting": "HLA-A*29:02; [7]", "value": "≥ 25000", "unit": "nM"}, {"measurement": "Kd", "setting": "HLA-A*23:01; [7]", "value": 15000, "unit": "nM"}, {"measurement": "Kd", "setting": "HLA-A*30:02; [7]", "value": "≥ 44600", "unit": "nM"}]}, {"sequence": "LCANEYTGNY", "values": [{"measurement": "Kd", "setting": "HLA-A*01:01 [1]; [7]", "value": 445, "unit": "nM"}, {"measurement": "Kd", "setting": "HLA-A*26:01; [7]", "value": "≥ 29900", "unit": "nM"}, {"measurement": "Kd", "setting": "HLA-A*24:02; [7]", "value": "≥ 70300", "unit": "nM"}, {"measurement": "Kd", "setting": "HLA-A*29:02; [7]", "value": 98.3, "unit": "nM"}, {"measurement": "Kd", "setting": "HLA-A*23:01; [7]", "value": "≥ 70000", "unit": "nM"}, {"measurement": "Kd", "setting": "HLA-A*30:02; [7]", "value": 80.4, "unit": "nM"}]}, {"sequence": "LCLIPTAMAF", "values": [{"measurement": "Kd", "setting": "HLA-A*23:01; [4]", "value": 1080, "unit": "nM"}]}, {"sequence": "LDEWSVATFY", "values": [{"measurement": "Kd", "setting": "HLA-A*01:01 [1]; [7]", "value": 2380, "unit": "nM"}, {"measurement": "Kd", "setting": "HLA-A*26:01; [7]", "value": "≥ 21400", "unit": "nM"}, {"measurement": "Kd", "setting": "HLA-A*24:02; [7]", "value": "≥ 32900", "unit": "nM"}, {"measurement": "Kd", "setting": "HLA-A*29:02; [7]", "value": 95.2, "unit": "nM"}, {"measurement": "Kd", "setting": "HLA-A*23:01; [7]", "value": "≥ 47900", "unit": "nM"}, {"measurement": "Kd", "setting": "HLA-A*30:02; [7]", "value": 495, "unit": "nM"}]}, {"sequence": "LFHAFFGAL", "values": [{"measurement": "Kd", "setting": "HLA-A*24:02; [8]", "value": "≥ 31900", "unit": "nM"}, {"measurement": "Kd", "setting": "HLA-A*29:02; [8]", "value": 3650, "unit": "nM"}, {"measurement": "Kd", "setting": "HLA-A*23:01; [8]", "value": 12500, "unit": "nM"}]}, {"sequence": "LFQFFVFLV", "values": [{"measurement": "Kd", "setting": "HLA-A*01:01 [1]; [9]", "value": 531, "unit": "nM"}, {"measurement": "Kd", "setting": "HLA-A*26:01; [9]", "value": "≥ 57200", "unit": "nM"}, {"measurement": "Kd", "setting": "HLA-A*24:02; [9]", "value": 18800, "unit": "nM"}, {"measurement": "Kd", "setting": "HLA-A*29:02; [9]", "value": 437, "unit": "nM"}, {"measurement": "Kd", "setting": "HLA-A*23:01; [9]", "value": 15700, "unit": "nM"}, {"measurement": "Kd", "setting": "HLA-A*30:02; [9]", "value": 986, "unit": "nM"}]}, {"sequence": "LFSGVSWTM", "values": [{"measurement": "Kd", "setting": "HLA-A*24:02; [6]", "value": 449, "unit": "nM"}]}, {"sequence": "LLFLPKAAY", "values": [{"measurement": "Kd", "setting": "HLA-B*15:01", "value": 99.4, "unit": "nM"}]}, {"sequence": "LRFLAIPPTA", "values": [{"measurement": "Kd", "setting": "HLA-A*30:01; [6]", "value": 3130, "unit": "nM"}]}, {"sequence": "LSRKTFDTEY", "values": [{"measurement": "Kd", "setting": "HLA-A*01:01 [1]; [6]", "value": 503, "unit": "nM"}, {"measurement": "Kd", "setting": "HLA-A*30:02; [6]", "value": 975, "unit": "nM"}]}, {"sequence": "LTTRNGEPHM", "values": [{"measurement": "Kd", "setting": "HLA-A*30:01; [3]", "value": 13700, "unit": "nM"}]}, {"sequence": "MANIFRGSY", "values": [{"measurement": "Kd", "setting": "HLA-A*30:02; [3]", "value": 113, "unit": "nM"}]}, {"sequence": "MWHVTRGAVL", "values": [{"measurement": "Kd", "setting": "HLA-A*24:02; [3]", "value": 1690, "unit": "nM"}, {"measurement": "Kd", "setting": "HLA-A*23:01; [3]", "value": 1460, "unit": "nM"}]}, {"sequence": "NAICSAVPVH", "values": [{"measurement": "Kd", "setting": "HLA-A*30:01; source organism: Dengue virus 3 Martinique/1243/1999", "value": 2950, "unit": "nM"}]}]}
